Experimental data as given in US20140227262A1, “PD-1 Antagonists and Methods for Treating Infectious Disease” (AMPLIMMUNE, INC., priority 2008, published 2014).
Numbering of substitutions follows the chain as printed. Names and notes keep the numbering of the source.

B1: D111S: murine B7-DC-Ig with the D111S substitution (protein)
chain: LFTVTAPKEVYTVDVGSSVSLECDFDRRECTELEGIRASLQKVENDTSLQSERATLLEEQLPLGKALFHIPSVQVRDSGQYRCLVICGAAWSYKYLTVKVKASYMRIDTRILEVPGTGEVQLTCQARGYPLAEVSWQNVSVPANTSHIRTPEGLYQVTSVLRLKPQPSRNFSCMFWNAHMKELTSAIIDPLSRMEPKVPRTWEPRGPTIKPCPPCKCPAPNLLGGPSVFIFPPKIKDVLMISLSPIVTCVVVDVSEDDPDVQISWFVNNVEVHTAQTQTHREDYNSTLRVVSALPIQHQDWMSGKEFKCKVNNKDLPAPIERTISKPKGSVRAPQVYVLPPPEEEMTKKQVTLTCMVTDFMPEDIYVEWTNNGKTELNYKNTEPVLDSDGSYFMYSKLRVEKKNWVERNSYSCSVVHEGLHNHHTTKSFSRTPGK
B2: K113S: murine B7-DC-Ig with the K113S substitution (protein)
chain: B1 chain with S92D, K94S
B3: wild type murine B7-DC-Ig: murine PD-L2 (B7-DC) fusion protein; representative sequence SEQ ID NO: 53/54 (protein, listed as Mus musculus)
chain: MLLLLPILNLSLQLHPVAALFTVTAPKEVYTVDVGSSVSLECDFDRRECTELEGIRASLQKVENDTSLQSERATLLEEQLPLGKALFHIPSVQVRDSGQYRCLVICGAAWDYKYLTVKVKASYMRIDTRILEVPGTGEVQLTCQARGYPLAEVSWQNVSVPANTSHIRTPEGLYQVTSVLRLKPQPSRNFSCMFWNAHMKELTSAIIDPLSRMEPKVPRTWEPRGPTIKPCPPCKCPAPNLLGGPSVFIFPPKIKDVLMISLSPIVTCVVVDVSEDDPDVQISWFVNNVEVHTAQTQTHREDYNSTLRVVSALPIQHQDWMSGKEFKCKVNNKDLPAPIERTISKPKGSVRAPQVYVLPPPEEEMTKKQVTLTCMVTDFMPEDIYVEWTNNGKTELNYKNTEPVLDSDGSYFMYSKLRVEKKNWVERNSYSCSVVHEGLHNHHTTKSFSRTPGK

Key:
[1] = test system: CT26 colorectal tumor cells; experiment: Established CT26 colorectal tumor model; conditions: 100 mg/kg cyclophosphamide on day 10, alone
Description: Balb/C mice at age of 9 to 11 weeks were implanted subcutaneously with 1.0×10^5 CT26 colorectal tumor cells.

[2] = target: T1, recombinant human PD-1/Fc (Homo sapiens, UniProt Q15116); experiment: PD-1 binding ELISA, human B7-DC-Ig; conditions: four different lots, FIG. 1A
T1 construct: Fc (immunoglobulin Fc fusion partner); purchased R&D Systems
T1 sequence (Q15116 with tags, fused parts or gaps limits assumed): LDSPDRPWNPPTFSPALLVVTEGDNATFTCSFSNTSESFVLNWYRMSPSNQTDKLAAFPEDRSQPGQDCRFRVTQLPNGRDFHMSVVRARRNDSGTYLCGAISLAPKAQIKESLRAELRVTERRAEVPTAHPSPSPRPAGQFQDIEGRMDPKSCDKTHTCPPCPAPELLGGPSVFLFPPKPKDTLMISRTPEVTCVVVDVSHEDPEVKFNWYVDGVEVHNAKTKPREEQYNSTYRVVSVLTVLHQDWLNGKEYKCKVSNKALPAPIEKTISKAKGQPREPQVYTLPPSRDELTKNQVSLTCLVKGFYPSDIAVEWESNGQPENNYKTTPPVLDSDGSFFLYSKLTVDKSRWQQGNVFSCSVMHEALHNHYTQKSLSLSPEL
Description: 96-well ELISA plates were coated with 100 μL 0.75 ug/mL recombinant human PD-1/Fc (R&D Systems) diluted in BupH Carbonate/Bicarbonate pH 9.4 buffer (Pierce) for 2 hours and then blocked with BSA solution (Jackson ImmunoResearch) for 90-120 minutes. […] Absorbance at 450 nm was read using a plate reader (Molecular Devices) and data were analyzed in SoftMax using a 4-parameter logistic fit.

[3] = target: T2, recombinant mouse PD-1/Fc (Mus musculus, UniProt Q02242); experiment: PD-1 binding ELISA, murine B7-DC-Ig; conditions: FIG. 1B
T2 construct: Fc (immunoglobulin Fc fusion partner); purchased R&D Systems
T2 sequence (Q02242 with tags, fused parts or gaps limits assumed): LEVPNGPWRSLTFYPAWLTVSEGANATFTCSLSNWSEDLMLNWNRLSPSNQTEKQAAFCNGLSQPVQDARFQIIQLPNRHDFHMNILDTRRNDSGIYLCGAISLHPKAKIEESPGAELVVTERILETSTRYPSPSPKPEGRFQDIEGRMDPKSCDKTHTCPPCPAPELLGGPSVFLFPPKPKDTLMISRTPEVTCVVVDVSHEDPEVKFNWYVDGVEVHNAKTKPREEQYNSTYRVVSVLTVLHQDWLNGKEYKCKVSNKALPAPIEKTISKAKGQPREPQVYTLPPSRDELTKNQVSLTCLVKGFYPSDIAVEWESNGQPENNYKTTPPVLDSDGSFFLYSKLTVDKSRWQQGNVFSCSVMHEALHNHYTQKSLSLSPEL
Description: 96-well ELISA plates were coated with 100 μL 0.75 ug/mL recombinant mouse PD-1/Fc (R&D Systems) diluted in BupH Carbonate/Bicarbonate pH 9.4 buffer (Pierce) for 2 hours and then blocked with BSA solution (Candor-Bioscience) for 90 minutes. […] Absorbance at 450 nm was read using a plate reader (Molecular Devices) and data were analyzed in SoftMax using a 4-parameter logistic fit.

| Molecule | binding to PD-1 in PD-1 binding ELISA (OD450) [3] | other results |
| --- | --- | --- |
| O=P1(N(CCCl)CCCl)NCCCO1 (centres unmarked) [CTX, cyclophosphamide] |  | outcome of tumor-bearing mice (death or euthanasia) [1]: died as a result of tumor growth or were euthanized |
| human B7-DC-Ig: human PD-L2 (B7-DC) fusion protein; representative sequence SEQ ID NO: 56/57 |  | binding to PD-1 in PD-1 binding ELISA (OD450) [2]: binding to PD-1 |
| B1 | reduced binding to PD-1 |  |
| B2 | reduced binding to PD-1 |  |
| B3 | binding to PD-1 |  |
